Assay results reported in article doi:10.1101/2021.05.13.443999.

Molecular target: p47^phox (human (endogenous in HEK-293 and in human midbrain)) (UniProt P14598)
Experiment: proximity ligation

Chain of UniProt P14598 (P14598 whole entry): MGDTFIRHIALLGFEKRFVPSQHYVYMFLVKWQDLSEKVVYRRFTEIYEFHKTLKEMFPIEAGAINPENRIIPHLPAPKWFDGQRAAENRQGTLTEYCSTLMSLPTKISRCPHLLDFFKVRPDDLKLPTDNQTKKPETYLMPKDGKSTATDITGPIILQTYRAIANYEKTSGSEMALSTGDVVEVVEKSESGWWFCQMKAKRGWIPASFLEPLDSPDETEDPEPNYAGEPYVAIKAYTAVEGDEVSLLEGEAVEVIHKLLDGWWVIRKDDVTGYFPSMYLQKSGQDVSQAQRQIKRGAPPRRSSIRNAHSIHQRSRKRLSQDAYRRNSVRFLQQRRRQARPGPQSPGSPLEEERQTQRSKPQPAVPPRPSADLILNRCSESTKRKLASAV

- IC50: 700 nM
Substance: NOX2 docking sequence (Nox2ds)-tat (peptide)
